# Test results as given in the RNAGym collection of RNA variant scans (doi:10.1073/pnas.2313332121).
# Variants at the floor of the assay were thinned out.
# B1: TPR 5TU (parent)
# chain: GGAUCUUCUCGAUCUAACAAAAAAGACAAAUCUGCCACAAAGCUUGAGAGCAUCUUCGGAUGCAGAGGCGGCAGCCUUCGGUGGCGCGAUAGCGCCAACGUUCUCAACUAUGACACGCAAAACGCGUGCUCCGUUGAAUGGAGUUUAUCAUG
# Variants of: B1
# Assay: polymerase ribozyme fitness, log enrichment relative to wild type (log ratio); higher = more active; in vitro selection for triplet polymerase activity
# Method in brief: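 Fitness measures genotype enrichment against wild-type enrichment on a logarithmic scale, with inverse-variance-weighted averaging of replicates. The logarithm is base 2, and genotypes were kept only with ≥10 input reads and ≥1 read per output in Illumina sequencing. The sequenced libraries came from one triplicate in vitro selection round, including frozen incubation at −7 °C, of PCR-built, transcribed mutant libraries of each subunit of a heterodimeric triplet polymerase ribozyme.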
row,Variant,polymerase ribozyme fitness (log ratio)
1,G11C A39U A73U C96U,≤ -4.2
2,A12C C38U C54U C76U U77G G84A U127A A138U,≤ -4.2
3,A12C C57A G83U G136C,-3.78
4,G11C C87U,-2.7
5,A12C C14A A29G G81A A91G C93U C103A,≤ -4.2
6,G11C A17U C79G G86U U101G C125U G152A,≤ -4.2
7,C10U U56A C93U A122U C149U G152U,≤ -4.2
8,A12C A29C C85A G133A,≤ -4.2
9,G11A U31A,-0.715
10,G11C A47C U55A G81A C87G A120U U144A,≤ -4.2
11,G11C A40C G83U A119G,-2.65
12,G11A C93G,≤ -4.2
13,G11A A21U C51U U53A U55G C57U C96A A110C,≤ -4.2
14,G11A A91G A138U,≤ -4.2
15,G11C A40C G42A G58U A60U C85G A89U C93G,≤ -4.2
16,G11U U90A A119U G133C,≤ -4.2
17,C10U C103G C132U,≤ -4.2
18,G11A A41U A52U U55A C118U,≤ -4.2
19,G11U G68U A120U C125U,≤ -4.2
20,G11A G34C A47G C103G A121U,≤ -4.2
21,A12C A26C G92C,-3.66

row,Variant,polymerase ribozyme fitness (log ratio)
1,G11A A37C U56G G83A U145G,-3.73
2,C10U G70U C87A C118U,≤ -4.2
3,G11C C51U C85U G140C,≤ -4.2
4,C10U C35U A47C C85A A89C C93U C95U,≤ -4.2
5,C10U C32U G68U G74A U78A G92A C125A G140U U145G,≤ -4.2
6,G11U G34A G88A G124A,≤ -4.2
7,C10U C32G U145C,-4.16
8,G11A A24G A60U U78C G92A G100A,≤ -4.2
9,G11U A66C C76U U90G U102G U148G,≤ -4.2
10,A12C A47U U55A,-1.41
11,G11A A17G U31A U53G C54U A64G,≤ -4.2
12,A12C C85G A122C,-2.14
13,G11A A17G C43U G94U A122G G141U,≤ -4.2
14,G11U C57G A119U A121G C149U,-2.88
15,G11C G42A G88C U102C G126U,≤ -4.2
16,G11A A19U U56G U82C G84U C95U,≤ -4.2
17,G11A A39U A97C,-3.26
18,C10U C57U C96U,-3.83
19,A12C A16U U61A C125A,-3.45
20,A12C C129G,-3.9
21,G11A G58U C96U,-1.58

row,Variant,polymerase ribozyme fitness (log ratio)
1,C10U C75U G84A U145A,-4.08
2,A12C A17G U31G U44A C93U C99U A122C U134A A142G,≤ -4.2
3,A12C A19C A122G U146C,-1.62
4,G11A A21U C85U,-1.32
5,A12C A19C C99U,-1.52
6,A12C C35A C85G C103G C118G G141C,≤ -4.2
7,G11U C54A,-2.47
8,C10U G59A C93U A137G,≤ -4.2
9,G11C C35U A52C A60G,≤ -4.2
10,C10U U53A,-2.96
11,G11U A40U G42C G84C G100U A107U U134G,≤ -4.2
12,G11U U56A A64G C118U A121U,≤ -4.2
13,G11C G46C C57U C85U,-3.93
14,G11U A22C C87U,-2.61
15,G11U A52U,-2.33
16,A12C A39U G59A A91U C93U A150C,≤ -4.2
17,A12C A30U A37U A49U C57U U90G A91U A107U,≤ -4.2
18,A12C C27A C36U C72G C118A,≤ -4.2
19,A12C A19C U45G G84U A142C,≤ -4.2
20,C10U C51G U53A U90G,≤ -4.2
21,A12C G50C A66C C79G C93U C95U U139C A147U,≤ -4.2

row,Variant,polymerase ribozyme fitness (log ratio)
1,C10U G84A U101A A115U A121G G124A,≤ -4.2
2,A12C A20U U53C A89G,-3.96
3,G11A U44A A52G C75U C76U G92C C149G,≤ -4.2
4,C10U C123U G141C,-4.03
5,G11U C18G G58C A60C U78C G83A C96U A115C,≤ -4.2
6,G11U A91G,-3.82
7,G11A A113U,-2.69
8,G11U A23U C57U G86A,≤ -4.2
9,G11U G94A A98C,-1.81
10,C10U G50C A64C G65C C93A A142U,≤ -4.2
11,A12C A16U C87G,≤ -4.2
12,G11C G58A,-1.65
13,G11A C114G G124U,-4.03
14,C10U U13G U45A G46A G58C C63U G141U,≤ -4.2
15,A12C A20G A37C C51U G58C A91C,≤ -4.2
16,G11C A40G G84A A97C G126A,≤ -4.2
17,C10U U33G C38G U44G A52G C87U C108U C118U,≤ -4.2
18,A12C G34U G50U G88C A98U C125A,-4.18
19,G11C A40C G84A A97U,-3.7
20,G11U A17G C57U C63U G81A U82G,-1.64
21,G11U U53G C57G G59U G94A,-3.74
